Test [1] has as its target T1, recombinant human TTR F87M/L110M (human, UniProt P02766 21-147). Kind of test: SPR (Biacore), mAb captured on anti-human chip, TTR F87M/L110M as analyte.
Test [2] addresses T1, recombinant human TTR F87M/L110M. The description is as above. This is another data set of the same source.

The values below come from US20240141025A1 (PROTHENA BIOSCIENCES, published 2024).

Substitutions are numbered along the chain they refer to. Like-named read-outs stand apart in the source and are kept apart here.

B1: Hu14G8 H2L1 (antibody, human IgG1, kappa, V domains shown)
VH: EVQLVESGGGLVQPGGSLKLSCAASGFTFSSYTMSWVRQTPEKRLELVAEINNSGDTTYYPDTVKGRFTISRDNAKNTLYLQMSSLKSEDTAMYYCARHYYYGGGYGGWFFDVWGQGTLVTVSS
VL: DIVMTQSAPSLPVTPGESVSISCRSNKSLLHSNGNTYLYWFLQKPGQSPQLLIYRVSNLASGVPDRFSGSGSGTAFTLKISRVEAEDVGVYYCMQHLEYPLTFGQGTKLEIKR
notes: also called humanized 14G8 VHv2/VLv1
For the molecule B1, in test [1], the Kd was determined as 2.26 nM, the koff amounted to 0.000693 s⁻¹ and the kon is 307000 M⁻¹ s⁻¹.

B2: Hu9D5 H3L1 (antibody, human IgG1, kappa, V domains shown)
VH: EVQLVESGGGLVQPGGSLRLSCAASGFTFSSYTMSWVRQAPGKGLEWVSEISNSGDTTYYPDTVKGRFTFSRDNAKNSLYLQSNLLRAEDTAVYYCARHYYYGGGYGGWFFDVWGQGTTVTVSS
VL: B1 VL with A8P, P9L, S18P, V19A, N26S, A75D
notes: also called humanized 9D5 VHv3/VLv1
As to B2, in test [2], the Kd came out at 4.32 nM, the off-rate constant (koff) turned out to be 0.000657 s⁻¹ and the kon came to 152000 M⁻¹ s⁻¹.

B3: Hu14G8 H2L3 (antibody, human IgG1, kappa, V domains shown)
VH: B1 VH
VL: B1 VL with A8P, P9L, S18P, V19A, N26S, D65S, A75D
notes: also called humanized 14G8 VHv2/VLv3
Regarding B3, in test [1], the Kd came to 1.24 nM, the koff amounted to 0.000318 s⁻¹ and the kon came to 252000 M⁻¹ s⁻¹.

B4: Hu14G8 H2L2 (antibody, human IgG1, kappa, V domains shown)
VH: B1 VH
VL: B1 VL with A8P, P9L, S18P, V19A, A75D
notes: also called humanized 14G8 VHv2/VLv2
Regarding B4, in test [1], the Kd is 2.1 nM, the koff was 0.000683 s⁻¹ and the kon was 326000 M⁻¹ s⁻¹.

B5: Hu9D5 H2L5 (antibody, human IgG1, kappa, V domains shown)
VH: B2 VH with W47L, S49A
VL: B1 VL with N26S, K44R, D65S, K79R
notes: also called humanized 9D5 VHv2/VLv5
As to B5, in test [2], the Kd stood at 6.84 nM, the koff was 0.000785 s⁻¹ and the kon was 115000 M⁻¹ s⁻¹.

B6: Hu14G8 H3L1 (antibody, human IgG1, kappa, V domains shown)
VH: B1 VH with S84N, K87R, S88A, M93V
VL: B1 VL
notes: also called humanized 14G8 VHv3/VLv1
As for B6, in test [1], the Kd stood at 1.76 nM, the koff came out at 0.000677 s⁻¹ and the kon worked out at 386000 M⁻¹ s⁻¹.

B7: Hu9D5 H4L1 (antibody, human IgG1, kappa, V domains shown)
VH: B2 VH with F70I
VL: B1 VL with A8P, P9L, S18P, V19A, N26S, A75D
notes: also called humanized 9D5 VHv4/VLv1
Turning to B7, in test [2], the Kd stood at 2.09 nM, the koff was found to be 0.000533 s⁻¹ and the kon worked out at 254000 M⁻¹ s⁻¹.
